Assay results taken from patent publication US20250250335A1 (SHENGHE CHINA BIOPHARMACEUTICAL, published 2025).

T1: human CEACAM5-his (ACRO CE5-H5226) (human, UniProt P06731 35-685)
T1 construct: Bought protein; not shown: His tag
T1 sequence (looked up): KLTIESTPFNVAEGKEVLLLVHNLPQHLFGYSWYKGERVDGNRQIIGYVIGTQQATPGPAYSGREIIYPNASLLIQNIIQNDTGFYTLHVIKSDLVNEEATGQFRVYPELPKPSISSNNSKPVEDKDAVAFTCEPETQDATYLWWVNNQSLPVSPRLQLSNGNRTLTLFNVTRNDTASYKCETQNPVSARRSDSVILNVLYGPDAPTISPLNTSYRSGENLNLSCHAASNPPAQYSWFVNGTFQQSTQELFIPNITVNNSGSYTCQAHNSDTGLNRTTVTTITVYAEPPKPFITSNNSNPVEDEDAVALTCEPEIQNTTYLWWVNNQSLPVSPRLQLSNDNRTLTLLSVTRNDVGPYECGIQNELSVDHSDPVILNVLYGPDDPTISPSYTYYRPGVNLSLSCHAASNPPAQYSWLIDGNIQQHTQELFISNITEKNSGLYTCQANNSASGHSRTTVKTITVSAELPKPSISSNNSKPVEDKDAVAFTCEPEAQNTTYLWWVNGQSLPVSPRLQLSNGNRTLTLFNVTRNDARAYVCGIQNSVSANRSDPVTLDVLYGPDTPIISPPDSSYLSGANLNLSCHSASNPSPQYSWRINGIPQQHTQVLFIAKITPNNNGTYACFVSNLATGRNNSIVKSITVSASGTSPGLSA

T2: human CEACAM6-his (ACRO CE6-H5223) (human, UniProt P40199 35-320)
T2 construct: Bought protein; not shown: His tag
T2 sequence (looked up): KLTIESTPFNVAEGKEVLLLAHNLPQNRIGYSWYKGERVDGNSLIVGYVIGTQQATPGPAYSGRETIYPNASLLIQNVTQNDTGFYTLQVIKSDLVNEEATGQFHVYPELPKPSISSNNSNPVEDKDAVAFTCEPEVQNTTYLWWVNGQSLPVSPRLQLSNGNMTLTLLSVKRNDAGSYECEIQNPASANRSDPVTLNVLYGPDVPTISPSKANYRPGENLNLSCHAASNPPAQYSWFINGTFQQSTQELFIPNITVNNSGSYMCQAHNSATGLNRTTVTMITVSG


Legend:
Test in all cases: SPR (Biacore), antibody captured on CM5 chip, antigen as analyte, 1:1 model
[1] = molecular target: T1, human CEACAM5-his (ACRO CE5-H5226)
Method: (§1) The CM5 sensor chip was activated at a flow rate of 10 μL/min for 420 seconds. The channel was then injected with 30 μg/mL of anti-rat Fc IgG in 10 mM NaAc (pH 4.5) at a flow rate of 10 μL/min. The chip was inactivated with 1 M ethanolamine-hydrochloric acid (GE) for 420 seconds at a flow rate of 10 μL/min.
(§2) Candidate antibodies in running buffer 1×HBS-EP+ (10 mM HEPES, 150 mM NaCl, 3 mM EDTA, 0.05% Tween 20, pH 7.4) were captured onto Fc2 with anti-rat Fc IgG at a flow rate of 10 μL/min. The 10 nM human CEACAM5-his protein or CEACAM-6-his or CEACAM6 (AB)-his protein and running buffer were sequentially injected into Fc1-Fc2 at a flow rate of […], bound for 180 seconds, and then dissociated for 3600 seconds. 10 mM glycine (pH 1.5) was injected as regeneration buffer after each dissociation.
(§3) Result plots for the reference channel Fc1 and the buffer channel were subtracted from the test result plots. The experimental data fit the 1:1 binding model. The molecular weight of 110 KDa was used to calculate the molar concentration of CEACAM5 protein, 55 KDa for human CEACAM6-his, and 55 KDa for human CEACAM6 (AB)-his.

[2] = molecular target: T3, Human-CEACAM6 (AB)-His (human, UniProt P40199 145-314)
T3 construct: Made in house, purified on a nickel column
T3 sequence (P40199 other isoform, or with tags, fused parts or gaps limits assumed): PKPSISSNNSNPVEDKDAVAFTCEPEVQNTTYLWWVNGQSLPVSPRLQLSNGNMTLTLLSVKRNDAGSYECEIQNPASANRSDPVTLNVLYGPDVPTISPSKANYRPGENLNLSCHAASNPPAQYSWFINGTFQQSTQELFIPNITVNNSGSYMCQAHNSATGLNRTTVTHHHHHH
Method: as §1, §2, §3

[3] = molecular target: T2, human CEACAM6-his (ACRO CE6-H5223)
Method: as §1, §2, §3

Binder	Kd [1] [nM]	Kd [2] [nM]	Kd [3] [nM]
Antibody 15 (antibody, V domains shown, Mouse-derived hybridoma antibody; also called mouse-derived antibody 15) VH: QVQLQQPGAELVKPGASVTLSCKASGYTFTSYWINWVKQRPGQGLEWIGNIYPYTSSSNYNEKFKGKATLTVDTSSNTAYMQLSGLTSDDSAVYFCARKGNIYYSYESYPLDFWGQGTSVTVSS VL: DIQMTQSSSSFSVSLGDRVTITCKASEDIYKQIGWYQQKPGNAPRLLIAGATSLETGVPSRFSGSGSGKDYMLNITSLQTEDVGSYYCQQYWSPPFTFGSGTKLEIK	7.64	< 0.001	3.83
Antibody B (antibody, human IgG1, kappa, V domains shown, Humanized form of mouse-derived antibody 2 on a human IgG framework; also called humanized antibody B) VH: EVQLVESGGGLVQPGGSLRLSCAASEFTLIDYYMSWVRQAPGKGLEWVGYIRNKVNGHTTDYIASVKGRFTISRDDSKNSLYLQMNSLKTEDTAVYYCARDPGINWYFDVWGQGTLVTVSS VL: EIVLTQSPATLSLSPGERATLSCRASSRVTYMHWYQQKPGQSPRPLISATSNLASGIPARFSGSGSGTDYTLTISSLEPEDFAVYYCQQWSYNPPTFGGGTKLELKR	< 0.001	117	19.7
